Reference: the Human Domainome abundance scans (Beltran et al. 2025)
± gives the uncertainty stated by the source.

B1: Glucocorticoid receptor, residues 419 to 494; numbered along this chain, P04150 (parent)
chain: KLCLVCSDEASGCHYGVLTCGSCKVFFKRAVEGQHNYLCAGRNDCIIDKIRRKNCPACRYRKCLQAGMNLEARKTK

Variants of: B1
Test: abundance fitness (aPCA) (normalised: wild type 0, dead -1); higher = more abundant; growth selection in yeast, the domain comes from the species named
Settings: Homo sapiens

Variant	abundance fitness
Q65V	-0.029 ± 0.038
Q65C	-0.111 ± 0.05
Q65E	-0.06 ± 0.061
H35W	-0.074 ± 0.039
H35N	0.11 ± 0.08
H35G	0.024 ± 0.032
H35A	0.018 ± 0.04
F26E	-0.891 ± 0.12
F26L	-0.655 ± 0.075
F26V	-0.738 ± 0.084
F26W	-0.462 ± 0.065
F26A	-0.877 ± 0.099
Q34R	0.002 ± 0.032
Q34H	-0.14 ± 0.098
Q34E	-0.051 ± 0.051
Q34K	-0.035 ± 0.046
Q34V	-0.073 ± 0.039
G21H	-0.122 ± 0.072
G21E	0.076 ± 0.042
S7M	-0.06 ± 0.051
S7C	-0.046 ± 0.072

Variant	abundance fitness
S7P	-0.757 ± 0.11
S7T	-0.02 ± 0.051
S7R	-0.048 ± 0.031
K74M	0.009 ± 0.054
K74C	-0.032 ± 0.06
K74F	0.047 ± 0.077
K74T	-0.034 ± 0.054
K74H	0.039 ± 0.16
G41E	-0.043 ± 0.045
G41C	-0.005 ± 0.059
G41W	-0.017 ± 0.037
K49Q	-0.033 ± 0.047
K49N	-0.06 ± 0.12
K49L	-0.054 ± 0.035
K49M	-0.021 ± 0.051
K49T	-0.001 ± 0.051
K49P	0.016 ± 0.044
K49H	-0.045 ± 0.076
V31N	-0.104 ± 0.082
V31D	-0.219 ± 0.084
V31L	-0.036 ± 0.033

Variant	abundance fitness
V31M	-0.042 ± 0.049
I47M	-0.143 ± 0.049
I47E	-0.216 ± 0.046
I47Q	-0.183 ± 0.056
A66H	-0.052 ± 0.051
A66E	-0.036 ± 0.048
I50W	-0.02 ± 0.038
I50R	0.005 ± 0.033
I50S	0.015 ± 0.04
I50G	0.009 ± 0.029
I50A	-0.004 ± 0.036
I50T	-0.007 ± 0.047
K24A	-0.019 ± 0.05
K24H	-0.026 ± 0.069
K24G	-0.018 ± 0.051
K24R	-0.105 ± 0.054
C39V	-1 ± 0.13
C39K	-0.787 ± 0.13
C39P	-0.585 ± 0.11
C39S	-0.927 ± 0.12
C39R	-0.976 ± 0.1

Variant	abundance fitness
L70G	-0.068 ± 0.033
L70C	-0.029 ± 0.053
L70K	-0.029 ± 0.054
L70V	0.021 ± 0.032
C58G	-0.81 ± 0.11
C58V	-0.903 ± 0.11
C58L	-0.789 ± 0.084
C58A	-0.935 ± 0.12
C58S	-0.697 ± 0.079
C58P	-0.842 ± 0.13
H14A	-0.077 ± 0.035
H14L	-0.125 ± 0.034
H14N	-0.086 ± 0.093
H14M	-0.163 ± 0.049
H14I	-0.184 ± 0.069
Y37E	-0.107 ± 0.052
Y37V	-0.116 ± 0.043
R59H	0.014 ± 0.09
R59Q	-0.259 ± 0.048
R59G	-0.825 ± 0.076
A72E	0.047 ± 0.041
